Laboratory results taken from patent US20230212643, “DNA NANOARCHITECTURES FOR PATTERN-RECOGNIZED […] OF DISEASES” (RENSSELAER POLYTECHNIC INSTITUTE, published 2023).

Molecular target: Dengue virus envelope protein domain III (ED3), on intact DENV serotype 2 virions (Dengue virus 2 (New Guinea C), UniProt P14340 P14340:576-674)
Experiment: inhibition; plaque reduction on Vero cells, DENV2 NGC in human serum, 37 C
Details: protein: virion; tags: none
Experimental: The in vitro inhibition of DENV through standard antiviral, plaque forming EC₅₀ assays was also examined. DENV viral particles were incubated with different concentrations of each inhibitor in human serum and the remaining infectivity was determined by a plaque reduction assay. The dose-dependent inhibition of DENV for the monovalent aptamer and each of the scaffold-aptamer complexes was examined (FIG. 5A). The EC₅₀ value (half maximal effective concentration) of the scaffold for DENV infection inhibition was 2 nM, whereas the EC₅₀ value of the monovalent aptamer was 15 μM (FIG. 5B).
For the in vitro inhibition of DENV (EC₅₀ and plaque assays), vero cells were seeded at a density of 3×10⁵ cells/3 mL MEM culture medium (with 10% FBS) in each well of a 6-well plate 72 h prior to infection. Approximately 200 plaque forming units of DENV serotype 2 (DENV2 NGC), after dilution in Hank's Balanced Salt Solution (HBSS) (GIBCO, Grand Island, N.Y.) including 0.4% (w/v) bovine albumin fraction V (BSA fraction V, GIBCO), were incubated at a 1:1 ratio in human serum (with or without an inhibitor). The mixtures were incubated in a 5% CO₂ incubator at 37° C. for 1 h. Then virus-inhibitor or virus-control mixtures were used directly to infect the confluent monolayer of Vero cells or diluted in MEM+2% FBS before being added onto the Vero cell monolayers. The inoculum was 100 μl/well. […]

Sequence of Dengue virus envelope protein domain III (ED3), on intact DENV serotype 2 virions (P14340 576-674, one chain of several): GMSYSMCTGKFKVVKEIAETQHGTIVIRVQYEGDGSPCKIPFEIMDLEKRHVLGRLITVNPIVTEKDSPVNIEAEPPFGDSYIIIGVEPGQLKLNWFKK

GCACCGGGAGGGAGGGAGGGCTTTT (ssDNA) [monovalent ED3-binding DNA aptamer]
EC50: 15 µM
